No end group written: not given here.
Legend:
[1] = Cyclic voltammetry, midpoint potential; format: physicochemical; details: pH 10, measured immediately after generation
Protocol: Electrochemical data were collected. A 3 mL sample of 3 mM Ni-NCC was prepared in 50 mM sodium borate at pH 10. CV data were collected with a CH1812C Electrochemical Analyzer potentiostat (CH Instruments) with a three-electrode setup (platinum working electrode, Bioanalytical Systems, Inc.; Pt auxiliary electrode; Ag/AgCl reference electrode) in a glass CV cell. Potential was applied from zero to 1.2 V with a scan rate of 0.2 V per second, and current was measured. The same experiment was attempted on a 3 mM Ni-NCC sample in 50 mM potassium phosphate at the same pH. The sample was incubated for 24 hours and analyzed again.
Electrochemical data were collected as previously described. 3-mL samples of 3 mM Ni-GGNCC (SEQ ID NO. 1) and Ni-GGGCC (SEQ ID NO. 3) were prepared in 50 mM potassium phosphate at pH 7.4. After incorporation, pH was raised to 10 to observe more intense signal. Cyclic voltammetry (CV) data were collected with a CH1812C Electrochemical Analyzer potentiostat (CH Instruments) with a three-electrode setup (platinum working electrode, Bioanalytical Systems, Inc.; Pt auxiliary electrode; Ag/AgCl reference electrode) in a glass CV cell. Potential was applied from zero to 1.2 V with a scan rate of 0.2 V per second, and current was measured.

[2] = Photopolymerization of hydroxy ethyl methacrylic acid (HEMA), rate by FTIR; details: light 550 mW cm-2 for 40 seconds
Protocol: Photopolymerization of hydroxy ethyl methacrylic acid (HEMA) was initiated using a visible light-curing unit (Spectrum® 800, Dentsply, Milford, Del., USA) at an intensity of 550 mW cm-2 for 40 seconds. The subsequent rate of polymerization was measured via FTIR and is reported as a normalized ratio of peak intensities from unreacted and reacted monomer (1455 cm^−1 and 1673 cm^−1). The rate of polymerization was altered by the addition of Ni-NCC and Ni-GGNCC (SEQ ID NO. 1). See FIG. 31, illustrating the percentage of polymer remaining over time.

[3] = Ni-SOD xanthine/xanthine oxidase coupled assay (superoxide scavenging); format: biochemical; details: cytochrome c, absorbance at 550 nm, reaction buffer pH 7.8
Protocol: Ni-SOD activity was determined, except Ni-NCC was generated in situ using one equivalent NiSO4. Ni-NCC was aged for 0-120 minutes, and the Ni-SOD activity was determined using the standard xanthine/xanthine oxidase method developed by Crappo and coworkers. All reagents were generated in 50 mM potassium phosphate, 100 μM EDTA reaction buffer at pH 7.8 except for Ni-NCC, which was generated in 50 mM potassium phosphate, pH 7.4. 600 μM cytochrome c from bovine heart (Sigma), 300 μM xanthine (Sigma) and enough xanthine oxidase from buttermilk (Sigma) to cause a change in absorbance at […] of 0.02-0.04 AU per minute were added to a final volume of 300 μL with reaction buffer. The change in absorbance at 550 nm was monitored on a Cary 100 UV-Visible spectrophotometer (Varian). The assay was performed with 100 μM Ni-NCC.
Superoxide scavenging activity was determined as reported previously, except Ni-peptides were generated in situ using one equivalent of NiSO4. Superoxide scavenging activity of Ni-GGGCC (SEQ ID NO. 3), Ni-GGNCC (SEQ ID NO. 1), Ni-GNNCC (SEQ ID NO. 4), and Ni-GNGCC (SEQ ID NO. 5) was determined using the standard xanthine/xanthine oxidase method developed by Crapo and coworkers. […] The change in absorbance at 550 nm was monitored on a Cary 100 UV-Visible spectrophotometer (Varian).

| Substance | midpoint potential [1] [V vs Ag/AgCl] | effect on rate of polymerization [2] | IC50 [3] [µM] |
| --- | --- | --- | --- |
| Ni-GGGCC: nickel complex of pentapeptide GGGCC (SEQ ID NO. 3) (cysteine pairing not given here; also: nickel complex) | 0.78 | – | – |
| XXLLL-GGNCC (not fully specified (N-terminus); cysteine pairing not given here; also: metallated with nickel) [Ni-GGNCC] | 0.8 | slowed the rate of polymerization | 9.1 |

Reference: patent publication US9187735B2, “Metal abstraction peptide with superoxide dismutase activity” (University of Kansas, priority 2012, dated 2015)
